Columns and labels:
[1] = tested on: WR 1-4wRK peptide (synthetic construct (human NANOG derived)); assay: EMSA; conditions: 50% free DNA; DNA bridging by FCCS from 1 uM
[2] = tested on: WR 1-4wRK peptide (synthetic construct (human NANOG derived)); assay: FP; conditions: given as Ka in nM; cooperativity n=3.3±1.2
[3] = tested on: T1, WR 1-3wRRK peptide (synthetic construct (human NANOG derived)); assay: FP; conditions: given as Ka in nM; n=2.1±0.5; almost all DNA bound at 60 nM in EMSA
T1 sequence: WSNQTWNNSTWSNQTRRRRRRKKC

[4] = tested on: HIV TAT cell-penetrating peptide (HIV); assay: FP; conditions: given as Ka in nM; n=1.1±0.1; not all DNA bound at 0.9 uM in EMSA, no FCCS bridging

Sequence of WR 1-4wRK peptide (synthetic construct (human NANOG derived)) (chain, as listed by the source): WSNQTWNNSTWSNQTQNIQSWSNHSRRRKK

GATA6 40 bp DNA (two NANOG cognate sites)
K half [1]: 1000 nM | K half [2]: 340 nM | K half [3]: 180 nM | K half [4]: 260 nM

— patent US20240383953
